Experiments:
[1] = molecular target: ancestral spike antigen (Sanofi SARS-CoV-2 recombinant prefusion spike trimer, Wuhan Hu-1) (SARS-CoV-2 (Wuhan Hu-1) | bacteriophage T4) (UniProt P0DTC2); experiment: SEC; Superose-6 column, analytical HPLC; antigens at 3 mg/mL stored at 4 °C for several weeks (cold stored) and an aliquot incubated at 37 °C for one day
[2] = molecular target: Beta spike antigen (Sanofi SARS-CoV-2 recombinant prefusion spike trimer, B.1.351 variant) (SARS-CoV-2 (B.1.351, Beta) | bacteriophage T4) (UniProt P0DTC2); experiment: as above

Row | Substance | stoichiometry N [1] | stoichiometry N [2]
1 | ancestral spike antigen (Sanofi SARS-CoV-2 recombinant prefusion spike trimer, Wuhan Hu-1) (from UniProt P0DTC2 14-1213) (complex) | 3 | –
2 | Beta spike antigen (Sanofi SARS-CoV-2 recombinant prefusion spike trimer, B.1.351 variant) (from UniProt P0DTC2 14-1213) (complex) | – | 3
